# Test results: patent publication US20240092919A1 (Ablynx, published 2024)
# Assays:
# [1] = target: T1, Cynomolgus TCR(AEA41865/AEA41866)-zipper protein (cynomolgus monkey); assay: SPR, ProteOn XPR36, 25 C, immobilised cyTCR-zipper
# T1 construct: also called cyTCR-zipper protein; cynoTCR zipper
# Description: HuTCR-zipper or cyTCR-zipper protein was immobilized on a GLC sensor chip (between 100-200 RU) via amine coupling chemistry, using EDC/NHS for activation of the carboxyl groups on the chip surface (running buffer: HBS-EP+, pH7.4). […] Processed sensorgrams were fitted with the Langmuir model (1:1 interaction) using ProteOn Manager 3.1.0 (Version 3.1.0.6) software.
# T1 TCR alpha: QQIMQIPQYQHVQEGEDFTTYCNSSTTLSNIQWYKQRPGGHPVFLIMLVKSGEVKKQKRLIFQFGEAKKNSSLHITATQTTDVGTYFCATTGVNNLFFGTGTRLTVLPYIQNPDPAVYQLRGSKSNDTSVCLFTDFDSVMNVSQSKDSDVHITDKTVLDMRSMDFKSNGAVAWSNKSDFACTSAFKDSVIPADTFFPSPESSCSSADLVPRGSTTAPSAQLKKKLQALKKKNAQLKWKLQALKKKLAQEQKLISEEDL
# T1 TCR beta: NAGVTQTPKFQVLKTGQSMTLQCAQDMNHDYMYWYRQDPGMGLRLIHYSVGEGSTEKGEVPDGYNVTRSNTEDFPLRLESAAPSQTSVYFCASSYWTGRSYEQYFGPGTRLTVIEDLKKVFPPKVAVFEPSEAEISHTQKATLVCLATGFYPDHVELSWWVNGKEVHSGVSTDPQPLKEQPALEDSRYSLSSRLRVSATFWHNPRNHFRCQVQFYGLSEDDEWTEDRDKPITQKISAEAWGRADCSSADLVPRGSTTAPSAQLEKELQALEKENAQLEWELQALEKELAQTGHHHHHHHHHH
# [2] = target: Cynomolgus T cell receptor on cynomolgus primary T cells (cynomolgus monkey); assay: cell-based or functional assay; also: test concentration or dose not given here
# [3] = target: T2, Human T cell receptor on human primary T cells (human, UniProt P01848 1-140; P01850 1-176); assay: cell-based or functional assay; also: test concentration or dose not given here
# T2 TCR alpha (looked up): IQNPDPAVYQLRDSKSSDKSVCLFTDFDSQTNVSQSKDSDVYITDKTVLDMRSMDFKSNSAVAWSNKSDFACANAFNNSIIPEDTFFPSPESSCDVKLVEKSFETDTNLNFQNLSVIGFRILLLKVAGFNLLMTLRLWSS
# T2 TCR beta (looked up): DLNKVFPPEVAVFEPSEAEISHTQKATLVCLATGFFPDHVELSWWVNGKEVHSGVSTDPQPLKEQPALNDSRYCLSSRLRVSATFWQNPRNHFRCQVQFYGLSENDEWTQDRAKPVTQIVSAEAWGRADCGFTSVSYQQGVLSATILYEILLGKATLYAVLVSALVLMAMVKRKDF
binder,measurement,setting,value
"T017000637 (bispecific antibody, also called A0110056A10(E1D)-35GS-T0170056G05(L11V, G26W, K30Q, L34Y, M77T, K83R, V89L, F91Y, M95L, Y99W)-A) DVQLVESGGGLVQAGGSLRLSCAASGITSKINDMGWYRQTPGNYREWVASITATGTTNYRDSVKGRFTISRDNAKSTVYLQMNSLKPEDTTVYYCNTFPPISNFWGQGTLVTVSSGGGGSGGGGSGGGGSGGGGSGGGGSGGGGSGGGGSEVQLVESGGGVVQPGGSLRLSCVASWDVHQINFYGWYRQAPGKEREKVAHISIGDQTDYADSAKGRFTISRDESKNTVYLQMNSLRPEDTALYYCRALSRIWPYDYWGQGTLVTVSSA",binding result,[1],no binding (tested: injected between 4.1 nM and 1000 nM)
same,"% Lysis, T cell mediated MOLM-13 cell killing, cynomolgus primary T cells, E:T 10:1",[2],17%
same,"% Lysis, T cell mediated MOLM-13 cell killing, human primary T cells, E:T 10:1",[3],0%
